{
  "source": "paper PMC2660430",
  "about": "“Identification of Proteins Targeted by the Thioredoxin Superfamily in Plasmodium falciparum” (PLoS Pathogens, 2009)",
  "binders": {"B1": {"name": "PfTrx1^C33S (natural protein)", "chain": "MVKIVTSQAEFDSIISQNELVIVDFFAEWCGPSKRIAPFYEECSKTYTKMVFIKVDVDEVSEVTEKENITSMPTFKVYKNGSSVDTLLGANDSALKQLIEKYAA", "notes": "Thioredoxin 1 (PfTrx1), P. falciparum, PlasmoDB PF14_0545; Lacks the resolving cysteine; traps targets as a mixed disulfide through Cys 30; also called Trx^C33S; TrxC33S; source: E. coli M15 (pQE30), purified (Ni-NTA)"}, "B2": {"name": "Plrx (wild type plasmoredoxin, recombinant) (natural protein, P. falciparum, UniProt Q8I224 1-179, looked up)", "chain": "MACQVDNPPKTYPNDKTAEYEKYANYMNYLYYYQNNELKKIDSSYFKDKYLGLFFGASWCKYCVTFIDSLNIFKKNFPNVEIIYIPFDRTYQEYQSFLKNTNFYALPFDNYLYICKKYQIKNLPSFMLITPNNNILVKDAAQLIKTDEYINNLKSLIKNYIIHPKTFQFNNRFFDLFRN", "notes": "Plasmoredoxin (Plrx), P. falciparum, Swiss-Prot Q8I224, PlasmoDB PFC0166w; also called wild type Plrx; PfPlrx; source: E. coli M15 (pQE30), purified (Ni-NTA)"}},
  "key": {"[1]": {"target": "T1, PfOAT (recombinant ornithine aminotransferase) (P. falciparum strain 3D7, UniProt Q6LFH8 1-414)", "T1 construct": "Ornithine aminotransferase, P. falciparum strain 3D7, Swiss-Prot Q6LFH8, PlasmoDB PFF0435w; gene amplified from a gametocyte cDNA library with primers from the start codon (NcoI) to the last codon (XhoI); Amine-coupled to a CM5 chip and oxidized on the chip with 0.5 mM DTNB before each analyte; source: E. coli BL 21 (pET28a), purified (Ni-NTA)", "T1 sequence (looked up)": "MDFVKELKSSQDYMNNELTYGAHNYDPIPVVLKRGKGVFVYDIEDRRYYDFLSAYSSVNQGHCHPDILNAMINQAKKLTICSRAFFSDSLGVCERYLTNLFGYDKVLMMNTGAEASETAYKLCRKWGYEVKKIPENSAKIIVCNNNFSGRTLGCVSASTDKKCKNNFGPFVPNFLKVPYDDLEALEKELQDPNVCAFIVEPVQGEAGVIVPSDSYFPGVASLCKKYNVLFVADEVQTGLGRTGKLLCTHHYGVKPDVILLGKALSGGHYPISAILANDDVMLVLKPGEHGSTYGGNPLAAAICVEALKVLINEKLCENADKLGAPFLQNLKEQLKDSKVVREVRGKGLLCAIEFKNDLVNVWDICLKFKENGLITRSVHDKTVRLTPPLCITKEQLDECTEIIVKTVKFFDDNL", "test": "SPR; BIAcore X; OAT amine-coupled to CM5 chip, oxidized with 0.5 mM DTNB; analyte 10 µM in HBS buffer (10 mM HEPES, 150 mM NaCl, 3.4 mM EDTA, 0.005% Nonidet P-40, pH 7.4), 25°C, 10 µl/min; elution with 2 mM DTT; FC2-FC1", "settings": "both partners purified"}, "PfSAHH (recombinant …)": {"target": "T2, PfSAHH (recombinant S-adenosyl-L-homocysteine hydrolase) (P. falciparum strain 3D7, UniProt P50250 1-479)", "T2 construct": "S-adenosyl-L-homocysteine hydrolase, P. falciparum strain 3D7, Swiss-Prot Q7K6A6, PlasmoDB PFE1050w; gene amplified from a gametocyte cDNA library with primers from the start codon (NcoI) to the last codon (XhoI); Amine-coupled to a CM5 chip and oxidized on the chip with 0.5 mM DTNB before each analyte; also called oxidized SAHH; source: E. coli BL 21 (pET28a), purified (Ni-NTA)", "T2 sequence (P50250 whole entry)": "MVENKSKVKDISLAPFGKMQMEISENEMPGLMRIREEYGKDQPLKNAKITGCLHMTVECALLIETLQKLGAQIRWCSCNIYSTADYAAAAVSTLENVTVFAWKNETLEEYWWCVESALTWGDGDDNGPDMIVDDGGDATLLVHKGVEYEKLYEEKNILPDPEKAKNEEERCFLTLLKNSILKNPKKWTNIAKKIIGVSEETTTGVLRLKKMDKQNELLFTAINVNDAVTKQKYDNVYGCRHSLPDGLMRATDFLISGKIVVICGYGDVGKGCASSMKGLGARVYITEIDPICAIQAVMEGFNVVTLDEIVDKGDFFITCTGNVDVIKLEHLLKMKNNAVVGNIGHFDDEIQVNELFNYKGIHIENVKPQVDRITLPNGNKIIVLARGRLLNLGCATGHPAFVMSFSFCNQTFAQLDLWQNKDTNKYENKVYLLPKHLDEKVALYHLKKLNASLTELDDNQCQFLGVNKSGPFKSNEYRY", "test": "SPR; BIAcore X; SAHH amine-coupled to CM5 chip, oxidized with 0.5 mM DTNB; analyte 10 µM in HBS buffer (10 mM HEPES, 150 mM NaCl, 3.4 mM EDTA, 0.005% Nonidet P-40, pH 7.4), 25°C, 10 µl/min; elution with 2 mM DTT; FC2-FC1", "settings": "both partners purified"}},
  "data": [
    {"binder": "B1", "values": [
      {"measurement": "binding result", "setting": "[1]", "result": "binds"},
      {"measurement": "binding result", "setting": "PfSAHH (recombinant …)", "result": "binds"}
    ]},
    {"binder": "B2", "values": [
      {"measurement": "binding result", "setting": "PfSAHH (recombinant …)", "result": "binds"}
    ]}
  ]
}
